Key:
Assay in all cases: cell_activity
[1] = tested on: LDLRE2.1 (LDLR2.1) TALEN pair (synthetic construct); settings: mRNA, pig fibroblasts, 30 C; plasmid 14.4-21.5
[2] = tested on: LDLRE4.2 TALEN pair (synthetic construct); settings: male pig fibroblasts; female 19
[3] = tested on: p65 (p6511.1) TALEN pair (synthetic construct); settings: 10 ng/ul mRNA each, porcine zygotes
[4] = tested on: ACAN12 TALEN pair (+231) (synthetic construct); settings: +231 scaffold in fibroblasts; indels confirmed in bovine embryos (Table 2)
[5] = tested on: ACAN12 TALEN pair (+63) (synthetic construct); settings: SURVEYOR, bovine fibroblasts; 29 in Table 1
[6] = tested on: DMDE6 TALEN pair (synthetic construct); settings: pig fibroblasts
[7] = tested on: GHRHR2.3 TALEN pair (synthetic construct); settings: mRNA, female pig fibroblasts; male 32.5; puro-free plasmid G-418 29
[8] = tested on: DMDE7.1 TALEN pair (synthetic construct); settings: SURVEYOR, pig fibroblasts; 27 in Table 1

With “CTCCTACAAGTGGATTGTGATGGGAACACCGAGTGCAAGGACGGGTCCG (double strand) [porcine LDLR exon 2 target]” the activity (% modified (day 3)) [1] was 34.
For porcine LDLR exon 4 target, the activity (% modified (day 3)) [2] was 20.
porcine RELA (p65) target showed an activity (% embryos with indels (16/56)) [3] of 29.
With bovine ACAN12 target the activity (% chromosomes cleaved) [4] was < 1 and the activity (% chromosomes cleaved) [5] was 25.
In the case of porcine DMD exon 6 target, the activity (% modified (day 3)) [6] is reported as 25.
Substance porcine GHRHR target has an activity (% modified (day 3)) [7] of 35.
In the case of porcine DMD exon 7 target, the activity (% chromosomes cleaved) [8] is reported as 38.

— patent publication US20130117870
